Laboratory results as given in the nanobody polyreactivity screen of Harvey et al. (2022).

experiment: yeast display, Sf9 membrane polyspecificity reagent, FACS + sequencing; frameworks hold sequencing errors
Summary of the method: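 Genes from sorted yeast were amplified by colony PCR, read by MiSeq 2 × 250 sequencing and filtered on CDR length. These cells carried a synthetic nanobody library in Saccharomyces cerevisiae BJ5465 and were sorted by FACS into low and high (top ~1%) gates on anti-HA and streptavidin fluorescence. Polyreactivity is labelled according to the gate of origin.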

| Sequence | polyreactivity (PSR sort gate) |
| --- | --- |
| QVQLVESGGALVQAGGSVRLSCAASGRTFGTYAMGWYRQAPGKERELVAAISTRGGRTFYADSVKGRFTISRDNAKNTVYLQMNSLKPEDTAVYYCAAYYKYYEYDYWGQVTQVTVSS | high polyreactivity |
| QVQLVESGGGLVQARGSLRLSCAASGITFRYYAMGWYRQAPGKERELVASISWSGGSTYYADSVKGRFTISRDNAKNTVYLQMNSLKPEDTAVYYCAADILTFWYRYYYWGQGTQVTVSS | high polyreactivity |
| QVQLVESGGGLVQAGGSLRLSCAASGRTFPGYAMGWYRQAPGKERELVAAITSSGDDTYYADSVKGRFTISRDNAKNTVYLQMYSLKPEDTAVYYCRLFRRSADSSFDYEYWGQGTQVTVSS | low polyreactivity |
| QVQLVESGGGLVQAGGSLRISCAASGRIFPFYAMGWYRQAPGKDRELVAAIRSGGGSTYYADSVKGRFTISRDNAKKTVYLQRNSLKPEDTAVYYCTARGRLGSAGRYNYWGQGTQVTVSS | high polyreactivity |
| QVQLVESGGGLVQAGGRLRLSCAASGSTFGLNAMGWYRQAPGTERELVAAITSRGTRTYYADSVKGRFTISRDNAKNTVYLQMNSLKTEDTAGYKCAKDSGATRYGEYDYWGQGTQVTVSS | low polyreactivity |
| QVQLVESGGGLVQAGGSLRLSCAASGRIFIYNAKGWYRQAPGKERELVAAITSDGTTNYADSVKGRFTISRDNAKNTVYLQMNSLKPEDTAVYYCAVDPFGSLVTYDYWGQGTQVTVSS | low polyreactivity |
| QVQLVESGGGLVQAGGSLRLSCAASGSIFPEYAMGWYRQAPGKERELVAAITTSGGSTYYADSVKGRFTISRDNAKNTVYLQMNSLKPEDTAVYYCAAGTQAHAYVVRPIEMDYWGQGTQVTVSS | low polyreactivity |
| QDQLVESGGGLVHAGGSLRLSCAASGSTFDRYALGWYRQAPVKERELVATITRSGSTNYADSVKGRFTISRDNAKNTVYLQMNSLKTEDTAVYYCAAYDRITRYDYWGQGTQVTVSS | high polyreactivity |
| QVQLVESGGGLVQAGGSLRLSCAASGSTFGDNAMGWYRQAPGKEREFVATISWDTATTYYADSVKARFTISRDNAKNTVYLQMNSLKPEDTAVYYCAARATAYYTVPSYADVDYWGQGTQVTVSS | low polyreactivity |
| QVQLVESGGGLVQAGGSLRLSCAASGRICSQYAMGWYRQAPGKERELVAAISTSGDRTYYADSVKGRFTISRDNAQNSGYLQLNSLKPEDTAVYYCAKDGPYTYGRDIYEYWGQGTQVTVSS | low polyreactivity |
| QVQLVESGGGLVQAGGSLRLSCAASGFIFYSNAMGWYRQAPGKERELVAAISWDAGSTYYADSVKGRFTISRDNAKNTVYLQMNSLKPEDTAVYYCATDRIVGRYIYNNWGQGTQVTVSS | high polyreactivity |
| QVQLVESGGGLVQAGGSLRLSCAASGRTFRKYTMGWYRQAPGKERELVAAISSRGGSTYYADSVKGRFTISRDNAKNTVYLQMNSLKPEDTAVYYCATDYITPSSEGDYWGQGTQVTVSS | high polyreactivity |
| QVQLVESGGGLVQAGGSLRLSCAASGGTFPSNAMGWYRQAPGQERELVAAITGSSDTTYYADSVKGRFTISRDNAKNTVYLQMNSLKPEDTAVYYCAADTPRDTNRYEYWGQGTQVTVSS | low polyreactivity |
| QVHLVESGGGLVQAGGSLRLSCAASGSIFVPYAMGWYRKAPGKERELVAAITYSDGCTYYADSVKGRFTMSRDNAKNTVYLQMNSLKPEDTAVYYCATYPQYYFRYDYWGQGTQVTVSS | high polyreactivity |
| QVQLVESGGGLVQAGGSLRLSCAASGRTFAINAMGWHRQAPGKERELVADITTDGSTYYADSVKGRFTISRDNAKNTVYLQMNSLKPEDTAVYYCATDSLDYFIRFKQFGYWGQGTQVTVSS | low polyreactivity |
| QVQLVESGGGLVQAGGSLRLSCAASGSTLTRNDIGWYRQAPGKERELVAAITFSGSDTYYADSVKGRFTISRDNAKNTVYLQMNILKPEDTAVYYCAAEYGGYSIYLFIGRYYWGQGTQVTVSS | low polyreactivity |
| QVQLVESGAGLVQAGGSLRISCAASGSIFTNAMGWYRQAPGKERELVAAISSSGGSTYYADSVKGRFTISRDNANNTVYLQMNSLKPEDTAVYYCAADHYGGRDYWGQGTQVTVSS | low polyreactivity |
| QVQLVESGGGLVQAGGSLRLSCAASGFTISFYAMGWYRQAPGKERELVAAITWNGGNTYYADSVKGRFTISRDNAKNTVYLQMNSLKPEDTAVYYCNKDSYYYHFDYWGQGTQVTVSS | high polyreactivity |
| QVQLVESGGGLVQAGGSLRLSCAASGSTFRRYPMGGYRQAPGTERELVAGISSGGTTYYADSVKGRFTISRDNAKNSVYLQMNSLKPEDTAVYYCAKVLYLRSAQAYYYWGQGTQVTVSS | high polyreactivity |
| QVQLVESWGGLVQAGGSLRLSCAASGRTFRRNAMGWYRQSPGKERELVATISSSGGRTYYADSVKGRFTISRDNAKKTVYLQMNSLKPEDTAVYYCIKALRSYPLFYFWVQGTQVTVSS | high polyreactivity |
| QVQLVESGGGLVQAGGSLRLSCAASGSIFKIYAMGWYRQAPGKARELVATISINGGSTYYADSVKGRFTISRDNAKNTVYLQMNSLKPEDTAVYDCNKVNEYITSQDDYGGQGTQVTVSS | low polyreactivity |
| QVQLVESGGGLVQAGGSLRLSCAASGFIFYSNAMGWYRQAPGKERELVAAISRGGGSTYYADSVKGRFTISRDNAKNTVYLQMNSLKPEDTAVYYCAAELYRWYYYWGQGTQVTVSS | high polyreactivity |

| Sequence | polyreactivity (PSR sort gate) |
| --- | --- |
| QVQLVESGGGLVQAGGSLRLSCAASGSIFLVNARGWYRQAPAKERELVASITWRGGRTYYADSVKGRFTISRDNAKNTDYLQMNSLKPEDTAVYYCAARNYRTGERLRYDYWGQGTQVTVSS | low polyreactivity |
| QVQLVESGGGLVQAGGSLRLSCAASGRIFAQYAMGWYRQAPGKEREFVAAITGSTDSTYYADSVKGRFTISRDNAKNTVYLQMNSLKPEDTAVYYCAKDDAYSTIIDYEYSYDYWGQGTQVTVSS | high polyreactivity |
| QVQLVESGGGLVQAGGSLRLSCAASGSTLRSKAMGWYRQAQGKERELVASISSGGSTSYADSVKGRFTISRDNAKNTVYLQMNSLKPEDTAVYYCAADNSVGSYDYWGQGTQVTVSS | low polyreactivity |
| QVQLVESGGGLVQAGGSLSLSFAASGSTFERYAMGWSRQAPGKERELVAAIRASGVRTYYADSVKGRFTISRDNAKNTVNLQMNSLKPEDTAVYYCAAELQRYWGRLYYYWGQGTQVSVSS | high polyreactivity |
| QVQLVESGGGLVQAGGSLRLSCAASGIIFDINAMGWYRQAPGKERELVAAITTSVDSTYYADSVKGRFTISRDTAKNTVYLQMNSLKPEDTAVYYCAVAFVQFTQYDYWGQGTQVTVSS | low polyreactivity |
| QVQLVESGGGLDQAGGSLRLSCAASGGTFGLYAMGWYRQAPGKERELVAAITWSDSSTYYADSVKGRFTISRDNAKNTVYFQMNSLKPEDTAVYYCNAVRSTSYGSYNYWGQGTQVTVSS | low polyreactivity |
| QLQLVESGGGLVQAGGSLRLSCASGLTFYWYAMGWYRQAPGKERELVAAINVRGGSTYYADSVKGRFTISRDNAKNTVYLQMNSLKPEDTAGYDCASYYPGFSYRYDYWGQGSQVTVSS | low polyreactivity |
| QVQLVESGGGSVQAGGSLRLSCAASGFTFRYYAMGWYRQAPGKERELVAGISSRGGSTYYADSVKGRFTISRDNAKNTVYLQMNSLKPEDTAVYYCATERFLLGLGYDYWGQGTQVTVSS | high polyreactivity |
| QVQLVESGGGLVQAGGSLRLSCAASGRTFTRYAMGRYRQAPGKERELVASISGSGGRTNYADSVKGRFTISRDNAKNTVYLQMNSLKPEDTAVYYCAARYRTWFGYWGQGTQVTVSS | high polyreactivity |
| QVQLVESGGGLVQAGGSLRLSCAASGIIFYIYAMGWYRQAPGKERELVAGISWRGGSTSYADSVKGRFTISRDNAKNTVYLQMNSLKPEDTAVYYCAAEVYSWDGYDYWGQGTQVTVSS | low polyreactivity |
| QVQLVESGGGLVQAGGSLRLSCAASGRTLRSNAMGWYRQAPGKERELVAAISSNGGSTYYADSVKGRFTISRDNAKNTVYLQMNSLKPEDTAVYYCAALSYYYSDRMDYWGQGTQVSVSS | low polyreactivity |
| QVQLVESGGGLLQAGGSLRLSCAASGSTIWSYAMGWYRQAPGKERELVASITWSGGSTYADSVKGRFTISRDNAKNTVYLQMNSLKPEDTAVYYCAADRGSYPDTGDYWGHGTQVTVSS | low polyreactivity |
| QVQLVESGGGLVQAGGSLRLSCAASGSTFRTYAMGWYRQAPGKEREFVAAIRYNGGSTYYADSVKGRFTISLDNAKNTVYLQMNSLKPEDTAVYYCAAATYYYRVSWLWYYLDDYWGQGTQVTVSS | high polyreactivity |
| QVQLVESGGGLVQAGGSLRLSCAASGSTFYRNAMGWYRQAPGKERELVATITFNGGSTYYADSVKGRFTISRDNAKNTVYLQMNSLKPEDTAVYYCAKSHAIYYWWDESWGQGTQVTVSS | low polyreactivity |
| QVQLVESGGGLVQAGGSLRLSCAASGSIAMGWYRQAPGKERELVATISSSGGSTYYADSVKGRFTISRDNAKNTVYLQMNSLKPEDTAVYYCNTQAVYGGGEGGYDYWGQGTQVTVSS | low polyreactivity |
| QVQLVESGGGLFQAGGSLRVSCAASGRTFRVYVMGSYRQAPGKERELVAAIRASGGITYYADSVKGRFTLSRDTAKNTVYLQMNSLKPEDTAVYYCAARPRTRYDYWGQGTQVTVSS | high polyreactivity |
| QVQLLESGGGLVQAGGSLRLSCAASGGTFYSYAMGWYRQAPGKEREFVATITRRSGSTYYADSVKGRFTISRDNAKNTVYLQMNSLKPEDNAVYYCAATKYKLLFIHFRYDYWGQGTQVTVSS | high polyreactivity |
| QVQLVESGGGLVQAGGSLRLSCAASGRIFPFYVMGWYRQAPGKERELVATINWSGGSTYYADSVKGRFTISRDNAKNTVYLQMNSLKPEETAVYYCNAAPSDDYDYWGQGTQVTVSS | low polyreactivity |
| QVQLVESGGGLVQAGGSLRLSCAASGRIFYLYGMGWYRQAPGKERELVAAIDWSDGSTYYADSVKGRFTISRDNAKNTVYLQMNSLKPEDTAVYYCAADGWAAWLYDYWGQGTQVTVSS | low polyreactivity |
| QVQLVESGGGLDQAGGSLRLSCDASGGTFLSYAMGWYRQAHGKERELVARINSGSSTYYADSVKGRFTISRDNAKNTVYLQMNSLKPEDTAVYYCATRWVSRTHGYWGQGTQVTVSS | low polyreactivity |
| QVQLVESGGGLVQAGGSLRLSCAASGRILPLYAMGWYRQAPGKDRELVALIDSGGSTNYADSVKGRFTISRDNAKNTVYLQMNSLKPEDTAVYYCAAVVTAQAYAYFTYGYDYWGQGTQVTVSS | low polyreactivity |
